Experimental data: ChEMBL document CHEMBL1122856, “Study on the inhibition of adenosine deaminase” (J Med Chem, 1985)

Substrate: Cc1c([C@@H](C)O)ncn1C1O[C@H](CO)[C@@H](O)[C@H]1O
Description: Ability to inhibit the deamination of adenosine by calf intestine adenosine deaminase expressed as Km

B1: Adenosine deaminase (Bos taurus), P56658 (protein)
chain: MAQTPAFNKPKVELHVHLDGAIKPETILYYGRKRGIALPADTPEELQNIIGMDKPLSLPEFLAKFDYYMPAIAGCREAVKRIAYEFVEMKAKDGVVYVEVRYSPHLLANSKVEPIPWNQAEGDLTPDEVVSLVNQGLQEGERDFGVKVRSILCCMRHQPSWSSEVVELCKKYREQTVVAIDLAGDETIEGSSLFPGHVKAYAEAVKSGVHRTVHAGEVGSANVVKEAVDTLKTERLGHGYHTLEDATLYNRLRQENMHFEVCPWSSYLTGAWKPDTEHPVVRFKNDQVNYSLNTDDPLIFKSTLDTDYQMTKNEMGFTEEEFKRLNINAAKSSFLPEDEKKELLDLLYKAYGMPSPASAEQCL
Km: 39 µM
